This is an account of results in PMC10754148 (Cell, 2023).

In assay [1] the target is T1, 5/6FAM-F13ExonS synthetic peptide (5/6FAM on the N-terminus).
T1 peptide: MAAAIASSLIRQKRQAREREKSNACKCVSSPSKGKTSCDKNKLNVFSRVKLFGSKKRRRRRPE
Put plainly: fluorescence polarisation.

For assay [2], the target named is pdisplay-LRRC37B_ECTO (amino acids 28-905) (human, UniProt Q96QE4 28-905). Put plainly: cell-surface binding assay.
The target in assay [3] is pdisplay-LRRC37B-LRR_ECTO (amino acids 468-841) (human, UniProt Q96QE4 468-841). Kind of assay: cell-surface binding assay.
Assay [4] deals with Nav1.6 (SCN8A), transfected cDNA (UniProt Q9UQD0 1-1980). Kind of assay: cell-surface binding assay.
Nav1.6 (SCN8A), transfected cDNA, sequence (Q9UQD0 whole entry): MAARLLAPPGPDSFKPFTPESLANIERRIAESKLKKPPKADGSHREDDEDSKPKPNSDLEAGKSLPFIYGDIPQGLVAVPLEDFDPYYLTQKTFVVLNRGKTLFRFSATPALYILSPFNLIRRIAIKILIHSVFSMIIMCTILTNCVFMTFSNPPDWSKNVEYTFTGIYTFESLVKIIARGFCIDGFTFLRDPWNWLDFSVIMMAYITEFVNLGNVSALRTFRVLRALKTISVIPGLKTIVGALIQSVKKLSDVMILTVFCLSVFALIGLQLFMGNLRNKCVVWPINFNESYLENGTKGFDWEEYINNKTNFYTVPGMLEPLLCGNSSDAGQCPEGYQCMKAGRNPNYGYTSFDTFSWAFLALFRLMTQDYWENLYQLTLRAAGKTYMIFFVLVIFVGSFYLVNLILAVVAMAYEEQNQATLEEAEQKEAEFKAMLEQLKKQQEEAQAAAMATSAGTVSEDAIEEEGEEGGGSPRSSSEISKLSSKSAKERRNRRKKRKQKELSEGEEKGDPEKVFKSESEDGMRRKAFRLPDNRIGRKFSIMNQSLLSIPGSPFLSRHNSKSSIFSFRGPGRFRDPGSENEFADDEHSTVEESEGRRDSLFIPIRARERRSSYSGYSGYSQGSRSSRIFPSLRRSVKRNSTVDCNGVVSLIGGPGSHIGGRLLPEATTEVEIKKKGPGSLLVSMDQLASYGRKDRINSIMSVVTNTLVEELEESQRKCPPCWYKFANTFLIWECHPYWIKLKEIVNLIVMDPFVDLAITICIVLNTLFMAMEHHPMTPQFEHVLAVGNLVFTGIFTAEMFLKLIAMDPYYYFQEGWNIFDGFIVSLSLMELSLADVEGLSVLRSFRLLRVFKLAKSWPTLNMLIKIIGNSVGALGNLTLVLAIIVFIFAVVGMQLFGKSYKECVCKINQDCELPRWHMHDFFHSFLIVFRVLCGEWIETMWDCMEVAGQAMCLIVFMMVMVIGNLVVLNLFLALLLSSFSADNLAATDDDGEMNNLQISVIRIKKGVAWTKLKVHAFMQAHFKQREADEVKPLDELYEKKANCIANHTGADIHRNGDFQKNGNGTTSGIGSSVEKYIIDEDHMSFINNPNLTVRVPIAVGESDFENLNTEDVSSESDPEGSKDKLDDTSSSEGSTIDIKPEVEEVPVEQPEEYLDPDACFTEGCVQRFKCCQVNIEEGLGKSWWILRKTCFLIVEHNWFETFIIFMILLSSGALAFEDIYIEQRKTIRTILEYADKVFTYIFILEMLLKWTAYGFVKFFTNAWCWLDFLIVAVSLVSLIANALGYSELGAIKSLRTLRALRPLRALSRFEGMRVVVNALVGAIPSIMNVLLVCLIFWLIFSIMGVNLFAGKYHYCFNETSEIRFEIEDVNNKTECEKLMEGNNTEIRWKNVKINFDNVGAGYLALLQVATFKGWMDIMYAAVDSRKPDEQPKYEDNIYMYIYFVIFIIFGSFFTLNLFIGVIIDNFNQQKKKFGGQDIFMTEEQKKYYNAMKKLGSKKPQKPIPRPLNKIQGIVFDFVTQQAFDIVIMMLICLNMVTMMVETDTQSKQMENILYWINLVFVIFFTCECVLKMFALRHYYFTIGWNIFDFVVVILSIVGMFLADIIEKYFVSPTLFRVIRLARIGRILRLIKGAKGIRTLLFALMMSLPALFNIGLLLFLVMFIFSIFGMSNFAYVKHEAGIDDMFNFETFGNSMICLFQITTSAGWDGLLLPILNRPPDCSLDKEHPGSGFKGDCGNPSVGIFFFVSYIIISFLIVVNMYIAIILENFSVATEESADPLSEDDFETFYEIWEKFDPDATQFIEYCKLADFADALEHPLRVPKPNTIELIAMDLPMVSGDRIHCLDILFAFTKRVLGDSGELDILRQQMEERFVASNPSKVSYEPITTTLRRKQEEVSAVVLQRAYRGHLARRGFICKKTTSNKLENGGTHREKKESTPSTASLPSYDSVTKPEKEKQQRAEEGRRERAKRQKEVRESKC

pdisplay-LRRC37B_ECTO (amino acids 28-905), sequence (Q96QE4 28-905): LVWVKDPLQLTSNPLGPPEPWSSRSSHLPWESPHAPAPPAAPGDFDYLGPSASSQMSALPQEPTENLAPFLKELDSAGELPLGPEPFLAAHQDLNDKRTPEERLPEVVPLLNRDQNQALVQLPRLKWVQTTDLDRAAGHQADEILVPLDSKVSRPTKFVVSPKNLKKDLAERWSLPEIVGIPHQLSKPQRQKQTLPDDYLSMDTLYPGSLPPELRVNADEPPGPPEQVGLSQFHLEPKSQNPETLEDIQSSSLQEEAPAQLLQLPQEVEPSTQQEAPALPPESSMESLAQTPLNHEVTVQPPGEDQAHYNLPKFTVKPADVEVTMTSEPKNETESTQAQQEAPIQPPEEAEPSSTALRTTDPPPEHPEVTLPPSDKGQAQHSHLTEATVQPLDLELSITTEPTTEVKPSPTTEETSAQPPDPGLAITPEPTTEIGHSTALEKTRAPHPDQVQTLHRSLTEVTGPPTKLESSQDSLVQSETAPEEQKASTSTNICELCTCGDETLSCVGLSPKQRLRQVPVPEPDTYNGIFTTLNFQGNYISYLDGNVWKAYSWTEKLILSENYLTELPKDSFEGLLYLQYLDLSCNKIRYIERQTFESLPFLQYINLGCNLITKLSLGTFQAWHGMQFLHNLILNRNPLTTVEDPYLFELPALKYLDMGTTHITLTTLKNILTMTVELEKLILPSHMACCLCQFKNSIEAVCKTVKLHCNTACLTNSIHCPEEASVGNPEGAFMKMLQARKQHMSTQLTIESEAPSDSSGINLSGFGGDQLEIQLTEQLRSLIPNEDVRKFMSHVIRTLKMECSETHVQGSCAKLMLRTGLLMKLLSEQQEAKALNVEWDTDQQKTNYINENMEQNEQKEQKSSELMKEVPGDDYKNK

B1: FLAG-LRR recombinant protein (LRR domain of LRRC37B, amino acids 468-841) (domain or fragment)
chain: AAAEKTRAPHPDQVQTLHRSLTEVTGPPTKLESSQDSLVQSETAPEEQKASTSTNICELCTCGDETLSCVGLSPKQRLRQVPVPEPDTYNGIFTTLNFQGNYISYLDGNVWKAYSWTEKLILSENYLTELPKDSFEGLLYLQYLDLSCNKIRYIERQTFESLPFLQYINLGCNLITKLSLGTFQAWHGMQFLHNLILNRNPLTTVEDPYLFELPALKYLDMGTTHITLTTLKNILTMTVELEKLILPSHMACCLCQFKNSIEAVCKTVKLHCNTACLTNSIHCPEEASVGNPEGAFMKMLQARKQHMSTQLTIESEAPSDSSGINLSGFGGDQLEIQLTEQLRSLIPNEDVRKFMSHVIRTLKMECSETHVQGSCAKLSTG
In assay [1], B1 displayed a Kd of 530 nM.

B2: F13ExonS-biotin synthetic peptide (peptide)
peptide: T1 peptide
modifications: not fully specified (C-terminus)
Take B2: the Kd in assay [2] was 1.1 ± 0.261 nM; in assay [3] it was 1.18 ± 0.28 nM; in assay [4] it was 49.83 ± 0.261 nM.
